Results from patent US12018084B2, “Anti-CXCR2 antibodies and uses thereof” (Cephalon LLC, priority 2018, dated 2024).
Values joined by “and” are separate entries in the source; they are usually repeats but may differ in a detail not shown here. Equal values may be shown once.

T1: Human CXCR2 (Homo sapiens, UniProt P25025)
T1 sequence (P25025 1-360): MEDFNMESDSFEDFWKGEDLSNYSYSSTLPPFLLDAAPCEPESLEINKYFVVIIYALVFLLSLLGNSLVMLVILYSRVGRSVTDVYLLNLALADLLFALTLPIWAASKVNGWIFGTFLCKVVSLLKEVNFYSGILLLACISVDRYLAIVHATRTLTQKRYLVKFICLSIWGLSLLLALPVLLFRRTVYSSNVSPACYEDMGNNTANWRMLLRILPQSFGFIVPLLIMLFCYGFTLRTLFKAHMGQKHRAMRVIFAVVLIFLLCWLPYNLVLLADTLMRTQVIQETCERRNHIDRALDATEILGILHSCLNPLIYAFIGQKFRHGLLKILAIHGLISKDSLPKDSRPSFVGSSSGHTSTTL


Key:
[1] = target: T1, Human CXCR2; test: Flow cytometry binding assay, Expi293F cells transiently transfected with human CXCR2; parameters: host or cells: Expi293F cells, vector pTT5
Procedure: For each 10 mL transfection, lipid-DNA complexes were prepared by diluting 10 μg of plasmid DNA in Opti-MEM™ I Reduced Serum Medium (Cat. no. 31985-062) to a total volume of 1.0 mL. 54 μL of ExpiFectamine™ 293 Reagent was diluted in Opti-MEM™ I medium to a total volume of 1.0 mL. Transfections were carried out according to manufacturer's instructions. The cells were incubated in a 37° C. incubator with a humidified atmosphere of 8% CO2 in air on an orbital shaker rotating at 200 rpm. Approximately 18-24 hours post-transfection, the cell viability was evaluated and transfected cells harvested for use.
(§1) Harvested cells were resuspended in FACS buffer (1×PBS+0.5% (w/v) bovine serum albumin (BSA)+2 mM EDTA pH 7.2). Approximately 2×10^5 cells were added per well in a 96-well round-bottomed plate. Cells were pelleted by centrifugation at 400 g for 5 mins at 4° C. and supernatants discarded. 25 μL of each test antibody or control antibody was added to the cells and incubated for 30 minutes at 4° C. Cells were washed twice in 100 μL FACS buffer followed by centrifugation at 400 g for 5 mins at 4° C.
(§2) For detection, 50 μL of secondary antibody (Table 2) was added to relevant samples. Commercially available antibodies that bound to transfected CXCR family members were used as positive controls to ensure that the cells were expressing the receptors. Cells were washed twice in 200 μL of FACS buffer followed by centrifugation at 400 g for 5 mins at 4° C. Before sample acquisition, cells were resuspended in 100 μL of FACS buffer. Samples were acquired using the high throughput sampler on a FACSCanto™ II cytometer (Beckton-Dickinson).
Binding of BKO-4A8 and variants thereof was detected by incubation of fluorochrome-conjugate anti-human IgG light chain lambda antibody. The binding activity of antibodies tested, quantified as mean fluorescent intensity, was independent of the antibody Fc region as illustrated in FIG. 9.

[2] = target: T1, Human CXCR2; test: Calcium flux assay, HTS002C-CHEMISCREEN human CXCR2 calcium-optimized cell line; assay type: cell-based
Procedure: One of the signaling pathways downstream of CXCR2 activation that has a role in cell chemotaxis is characterized by calcium mobilization (flux). The ability of BKO-4A8-101c to inhibit human CXCR2 ligand-induced calcium flux was tested in the commercially available HTS002C-CHEMISCREEN™ human CXCR2 chemokine receptor calcium-optimized cell line.
The Fluo-4 NW calcium assay kit (Life Technologies) was used according to manufacturer's protocol for in-cell measurement of calcium mobilization, which was read using a FLIPR Tetra high-throughput cellular screening system (Molecular Devices). The peak response minus the basal response from each well was used to determine inhibition dose response curves fitting a four-parameter logistic equation and IC50 values.

[3] = system: human CXCR family members (CXCR1, CXCR3, CXCR4, CXCR5, CXCR6, CXCR7); test: Flow cytometry binding to other human CXCR family members on transfected Expi293F cells; details: FIG. 11
Procedure: as §1
as §2, with “(Beckton-Dickinson). […]” for “(Beckton-Dickinson).”
The specificity of the anti-CXCR2 antibody BKO-4A8-101c was tested by assessing binding activity on Expi293F™ cells transiently transfected to express closely related human CXCR family members as illustrated in FIG. 11. Binding of BKO-4A8-101c was detected by incubation of fluorochrome-conjugate anti-human IgG antibody.

| Max binding (MFI) ([1]; combinatorial variants with light chain c, listed as 4A8 Control) | EC50 ([1]; combinatorial variants, Table 11) [nM] | Molecule | CXCL1 Maximal Inhibition % ([2]; CXCL1 at EC50) [%] | CXCL8 Maximal Inhibition % ([2]; CXCL8 at EC50) [%] | Maximal Inhibition % Mean ([2]; Hu CXCL1) [%] | Maximal Inhibition % Mean ([2]; Hu CXCL2) [%] | Maximal Inhibition % Mean ([2]; Hu CXCL3) [%] | Maximal Inhibition % Mean ([2]; Hu CXCL5) [%] | Maximal Inhibition % Mean ([2]; Hu CXCL6) [%] | Maximal Inhibition % Mean ([2]; Hu CXCL7) [%] | Maximal Inhibition % Mean ([2]; Hu CXCL8) [%] | specificity of binding among human CXCR family members [3] |
| --- | --- | --- | --- | --- | --- | --- | --- | --- | --- | --- | --- | --- |
| 62074 MFI and 82797 MFI | 0.4 | BKO-4A8: parental anti-CXCR2 antibody, VH SEQ ID NO: 17, VL SEQ ID NO: 18 (antibody, V domains shown, BKO_4A8_VH; BKO_4A8_VL) VH: EVQLLESGGGLVQPGGSLRLSCAASGFTFSSSTMSWVRQAPGKGLEWVSAISGRGRNTYYADSVKGRFTISRDNSRNTLYLQMNSLRAEDTAVYYCAIQMGYWGQGILVTVSS VL: QSALTQPPSASGSPGQSVTISCIGTSSDVGGYNYVSWYQQHPDKAPKLMIYEVNKRPSGVPDRFSGSKSGNTASLTVSGLQAEDEADYYCSSYAGNNNFGVFGGGTKLTVL | – | – | – | – | – | – | – | – | – | – |
| – | – | 101c: VH SEQ ID NO: 108, VL SEQ ID NO: 110; renamed BKO-4A8-101c (antibody, V domains shown, 4A8 VH Variant 101 M34Q_A40P_N56S_R75K_M96A; 4A8 VL variant c D41G_N52S_N94S, renamed BKO-4A8-101c) VH: EVQLLESGGGLVQPGGSLRLSCAASGFTFSSSTQSWVRQPPGKGLEWVSAISGRGRSTYYADSVKGRFTISRDNSKNTLYLQMNSLRAEDTAVYYCAIQAGYWGQGILVTVSS VL: QSALTQPPSASGSPGQSVTISCIGTSSDVGGYNYVSWYQQHPGKAPKLMIYEVSKRPSGVPDRFSGSKSGNTASLTVSGLQAEDEADYYCSSYAGSNNFGVFGGGTKLTVL | 93 | 9 | 91 | 88 | 52 | 81 | 81 | 43 | 9 | strongly and exclusively bind human CXCR2 |
